The record followed here is patent US20170327598A1 (published 2017).

Holding throughout (assay): sandwich ELISA, STAT protein coated at 0.5 µg/mL
(An ELISA detects its analyte on a solid surface through an enzyme-linked reagent.)

The target in test [1] is T1, STAT 4 protein (UniProt Q14765 1-748, limits assumed).
T1 sequence (looked up): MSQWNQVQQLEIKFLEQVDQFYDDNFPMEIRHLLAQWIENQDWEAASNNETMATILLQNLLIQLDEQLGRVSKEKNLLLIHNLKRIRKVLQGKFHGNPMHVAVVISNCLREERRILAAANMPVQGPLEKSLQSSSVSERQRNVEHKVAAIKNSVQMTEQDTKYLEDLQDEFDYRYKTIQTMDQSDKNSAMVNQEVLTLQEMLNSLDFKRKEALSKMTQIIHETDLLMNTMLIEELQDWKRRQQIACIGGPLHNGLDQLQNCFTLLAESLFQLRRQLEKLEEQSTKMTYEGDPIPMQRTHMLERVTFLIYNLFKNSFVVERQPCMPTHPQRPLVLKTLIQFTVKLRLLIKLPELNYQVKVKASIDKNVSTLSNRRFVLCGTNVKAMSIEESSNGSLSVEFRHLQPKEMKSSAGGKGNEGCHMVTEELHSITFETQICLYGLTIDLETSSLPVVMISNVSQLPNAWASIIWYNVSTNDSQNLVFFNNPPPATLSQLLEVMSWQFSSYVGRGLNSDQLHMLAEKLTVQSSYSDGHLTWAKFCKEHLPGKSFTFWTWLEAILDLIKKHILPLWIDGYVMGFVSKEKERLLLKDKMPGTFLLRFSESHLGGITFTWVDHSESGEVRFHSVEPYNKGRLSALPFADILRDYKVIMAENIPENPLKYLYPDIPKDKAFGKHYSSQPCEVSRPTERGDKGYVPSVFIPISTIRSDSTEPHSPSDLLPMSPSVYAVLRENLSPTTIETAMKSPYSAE

The target in test [2] is T2, STAT 2 protein (UniProt P52630 1-851, limits assumed).
Test [3] concerns the target STAT 3 protein (UniProt P40763 1-770, limits assumed).
Test [4] concerns the target T3, STAT 1 protein (UniProt P42224 1-750, limits assumed).
T3 sequence (looked up): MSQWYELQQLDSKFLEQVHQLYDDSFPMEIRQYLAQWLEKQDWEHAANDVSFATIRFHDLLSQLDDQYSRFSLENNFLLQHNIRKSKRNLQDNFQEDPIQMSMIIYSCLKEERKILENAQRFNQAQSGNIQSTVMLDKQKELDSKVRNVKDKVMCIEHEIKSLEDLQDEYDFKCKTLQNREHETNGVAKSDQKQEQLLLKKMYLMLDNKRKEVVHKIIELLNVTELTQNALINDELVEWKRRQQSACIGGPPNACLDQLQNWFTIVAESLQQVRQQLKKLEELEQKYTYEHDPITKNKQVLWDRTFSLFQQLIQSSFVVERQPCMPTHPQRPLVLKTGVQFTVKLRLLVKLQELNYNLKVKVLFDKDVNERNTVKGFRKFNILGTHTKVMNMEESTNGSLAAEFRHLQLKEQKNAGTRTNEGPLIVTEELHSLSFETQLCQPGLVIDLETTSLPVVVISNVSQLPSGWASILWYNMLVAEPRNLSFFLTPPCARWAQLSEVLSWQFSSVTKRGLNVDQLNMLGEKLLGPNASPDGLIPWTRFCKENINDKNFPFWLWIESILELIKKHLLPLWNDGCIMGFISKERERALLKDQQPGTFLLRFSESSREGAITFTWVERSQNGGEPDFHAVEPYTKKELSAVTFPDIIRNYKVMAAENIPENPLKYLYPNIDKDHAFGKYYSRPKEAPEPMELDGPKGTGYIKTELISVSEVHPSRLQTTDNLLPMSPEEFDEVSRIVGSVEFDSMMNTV

Test [5] concerns the target T4, STAT 5a protein (UniProt P42229 1-794, limits assumed).
T4 sequence (looked up): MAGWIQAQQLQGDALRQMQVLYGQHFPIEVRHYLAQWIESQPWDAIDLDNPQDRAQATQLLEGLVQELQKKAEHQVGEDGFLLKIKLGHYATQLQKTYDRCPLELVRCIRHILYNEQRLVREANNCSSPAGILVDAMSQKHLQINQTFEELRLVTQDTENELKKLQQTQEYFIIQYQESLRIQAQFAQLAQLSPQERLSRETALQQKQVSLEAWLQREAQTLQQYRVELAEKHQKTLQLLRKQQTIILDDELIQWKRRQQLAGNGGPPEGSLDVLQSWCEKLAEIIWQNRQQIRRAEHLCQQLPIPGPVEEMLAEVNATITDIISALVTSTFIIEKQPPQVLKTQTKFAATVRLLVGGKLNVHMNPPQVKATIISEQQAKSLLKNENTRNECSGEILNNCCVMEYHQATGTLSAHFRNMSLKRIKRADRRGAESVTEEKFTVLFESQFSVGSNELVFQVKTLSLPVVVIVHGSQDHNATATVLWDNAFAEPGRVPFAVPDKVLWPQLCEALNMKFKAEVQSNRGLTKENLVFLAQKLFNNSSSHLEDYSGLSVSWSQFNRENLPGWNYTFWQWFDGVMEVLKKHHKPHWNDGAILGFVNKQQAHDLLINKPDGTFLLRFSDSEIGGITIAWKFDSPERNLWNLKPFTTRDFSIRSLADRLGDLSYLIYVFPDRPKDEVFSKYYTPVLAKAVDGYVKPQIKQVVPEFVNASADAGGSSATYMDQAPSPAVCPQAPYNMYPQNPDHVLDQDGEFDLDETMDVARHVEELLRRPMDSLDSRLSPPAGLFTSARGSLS

Test [6] deals with T1, STAT 4 protein. This is another data set of the same source.
Test [7] has as its target T2, STAT 2 protein. This is another data set of the same source.
In test [8] the target is T3, STAT 1 protein. The source holds these as a separate data set.
Test [9] concerns the target T4, STAT 5a protein. The source holds these as a separate data set.

Where two headings read alike, the source gives them in different places.

T2 sequence (P52630 whole entry): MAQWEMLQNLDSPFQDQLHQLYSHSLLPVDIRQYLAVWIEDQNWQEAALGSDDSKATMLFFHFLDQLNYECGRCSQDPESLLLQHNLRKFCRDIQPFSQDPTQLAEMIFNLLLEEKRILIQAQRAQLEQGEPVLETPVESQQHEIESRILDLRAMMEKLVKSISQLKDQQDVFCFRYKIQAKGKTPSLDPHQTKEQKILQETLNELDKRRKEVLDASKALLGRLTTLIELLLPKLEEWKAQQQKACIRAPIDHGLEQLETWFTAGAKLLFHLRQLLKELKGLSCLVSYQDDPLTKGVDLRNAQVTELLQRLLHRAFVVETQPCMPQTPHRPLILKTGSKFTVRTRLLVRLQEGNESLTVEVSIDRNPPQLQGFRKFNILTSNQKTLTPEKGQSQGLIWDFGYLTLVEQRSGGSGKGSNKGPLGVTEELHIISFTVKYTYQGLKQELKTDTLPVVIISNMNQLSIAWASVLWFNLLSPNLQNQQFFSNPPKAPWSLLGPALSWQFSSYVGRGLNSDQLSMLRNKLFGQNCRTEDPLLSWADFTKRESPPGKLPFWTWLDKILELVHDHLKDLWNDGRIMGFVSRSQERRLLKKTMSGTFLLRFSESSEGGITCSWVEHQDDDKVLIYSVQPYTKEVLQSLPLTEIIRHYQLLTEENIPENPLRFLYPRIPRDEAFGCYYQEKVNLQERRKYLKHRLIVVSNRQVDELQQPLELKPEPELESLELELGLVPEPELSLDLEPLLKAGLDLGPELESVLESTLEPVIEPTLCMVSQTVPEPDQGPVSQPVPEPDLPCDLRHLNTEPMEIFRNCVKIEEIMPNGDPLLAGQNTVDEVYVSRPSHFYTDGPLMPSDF

B1: anti-STAT3 VHH13 (SEQ ID NO:3) sdAb (VHH)
VHH: HVQLVESGGGSVQAGGSLRLSCAASGANGGRSCMGWFRQVPGKEREGVSGISTGGLITYYADSVKGRFTISQDNTKNTLYLQMNSLKPEDTAMYYCATSRFDCYRGSWFNRYMYNSWGQGTQVTVSS
Consider B1, for which the “Mean OD450” value came out at 0.833 OD450 in test [1]; 0.186 OD450 in test [2]; 0.431 OD450 in [3]; 0.159 OD450 in test [4]; 0.821 OD450 in test [5]; 3.14 OD450 in [6]. For the same molecule, the “Mean OD450” value in test [7] was found to be 1.85 OD450; in test [8], 1.94 OD450; in test [9], 2.73 OD450.
